From patent US20220332804A1 (CSL INNOVATION, published 2022)
Numbering of substitutions follows the chain as printed.

Key:
Assay in all cases: SPR, KD relative to WT C2;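 also: biacore SPR at 37 °C, anti-C2 mAbs captured via immobilised goat anti-human IgG, C2 alanine or serine surface mutants as analytes, 1:1 model fitted, double-referenced sensograms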
human C2 W420A = molecular target: T1, human C2 W420A (human, UniProt P06681 21-752)
T1 sequence: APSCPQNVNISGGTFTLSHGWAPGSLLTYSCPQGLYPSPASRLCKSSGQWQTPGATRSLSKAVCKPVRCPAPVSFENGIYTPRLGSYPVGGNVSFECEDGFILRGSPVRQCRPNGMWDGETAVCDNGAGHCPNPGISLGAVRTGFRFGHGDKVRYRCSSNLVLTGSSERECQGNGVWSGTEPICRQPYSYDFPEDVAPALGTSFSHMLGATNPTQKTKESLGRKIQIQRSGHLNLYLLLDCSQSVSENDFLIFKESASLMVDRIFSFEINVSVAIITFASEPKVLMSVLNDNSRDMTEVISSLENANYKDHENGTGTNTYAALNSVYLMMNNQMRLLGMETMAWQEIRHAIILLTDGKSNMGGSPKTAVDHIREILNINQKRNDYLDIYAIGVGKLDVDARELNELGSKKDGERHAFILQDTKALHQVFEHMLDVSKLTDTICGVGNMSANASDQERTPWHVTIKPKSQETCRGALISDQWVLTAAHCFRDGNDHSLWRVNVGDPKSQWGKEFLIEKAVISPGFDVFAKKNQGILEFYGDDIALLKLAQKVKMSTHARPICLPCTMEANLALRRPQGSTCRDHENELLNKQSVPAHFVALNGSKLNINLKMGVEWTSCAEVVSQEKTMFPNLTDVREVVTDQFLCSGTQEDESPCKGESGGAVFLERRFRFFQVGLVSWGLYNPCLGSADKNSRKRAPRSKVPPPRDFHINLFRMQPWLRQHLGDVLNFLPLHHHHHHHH

human C2 L439A = molecular target: T2, human C2 L439A (human, UniProt P06681 21-752)
T2 sequence: T1 sequence with A400W, L419A

human C2 Q447A = molecular target: T3, human C2 Q447A (human, UniProt P06681 21-752)
T3 sequence: T1 sequence with A400W, Q427A

human C2 P723A = molecular target: T4, human C2 P723A (human, UniProt P06681 21-752)
T4 sequence: T1 sequence with A400W, P703A

B1: RF16-226 (antibody, human IgG4 S228P, lambda)
heavy: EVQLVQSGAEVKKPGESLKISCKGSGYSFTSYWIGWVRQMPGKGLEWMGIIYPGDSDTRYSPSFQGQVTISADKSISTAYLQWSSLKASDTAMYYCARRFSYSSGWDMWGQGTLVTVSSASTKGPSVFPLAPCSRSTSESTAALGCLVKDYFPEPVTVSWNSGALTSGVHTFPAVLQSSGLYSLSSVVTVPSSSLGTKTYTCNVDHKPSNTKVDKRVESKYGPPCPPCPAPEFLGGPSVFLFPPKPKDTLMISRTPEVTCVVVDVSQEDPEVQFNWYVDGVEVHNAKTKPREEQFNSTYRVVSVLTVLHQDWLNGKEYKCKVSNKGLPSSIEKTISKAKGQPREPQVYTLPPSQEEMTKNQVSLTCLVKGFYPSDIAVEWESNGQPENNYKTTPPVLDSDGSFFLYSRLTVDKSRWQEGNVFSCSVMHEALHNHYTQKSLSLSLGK
light: SYELTQPPSVSVSPGQTARITCSGDALTSKYVAWYQQKSGLAPLLVIYEDTRRPSGIPAKFSGSSSGSVATLTISGAHGDDEADYYCYSTDASGHQRVFGGGTKLTVLSQPKAAPSVTLFPPSSEELQANKATLVCLISDFYPGAVTVAWKADGSPVKAGVETTKPSKQSNNKYAASSYLSLTPEQWKSHRSYSCQVTHEGSTVEKTVAPTECS
notes: pH-dependent anti-C2 antibody from a phage display library; also called WT
Fold diff (human C2 W420A): 2 fold
Fold diff (human C2 L439A): 12 fold
Fold diff (human C2 Q447A): 1 fold
Fold diff (human C2 P723A): 12 fold
